Assay results published in PMC9098913, “In vitro reconstitution of Escherichia coli divisome activation” (Nature Communications, 2022).
Like-named read-outs stand apart in the source and are kept apart here.

Experiments:
FtsZ = conditions: for Pearson correlation coefficient (PCC) FtsA/FtsZ: 1.25 µM FtsZ, mean ± s.d.
FtsA self-interaction = experiment: FRET self-interaction of His-tagged FtsAs (and His-SUMO control) on Tris-NTA membranes; format: binding, E. coli
Procedure: To study colocalization of His-tagged variants of FtsA, 0.5–1 µM of Cy5 labelled His-tagged FtsAs were added to the chamber, incubated for 20 min and washed 6x with reaction buffer. […] To control the density of membrane-bound FtsA, SUVs without and with Tris-NTA lipids were mixed to obtain the respective Tris-NTA concentrations. To perform FRET/FRAP experiments, equimolar concentrations of Cy3 and Cy5 labelled His-tagged FtsAs (total 0.5–1 µM) or His-SUMO-Cys were added to a chamber and treated as above. […] FRAP experiments were performed as described before.
Bleaching the acceptor dye leads to an increase in the donor intensity, which can be used to quantify the Foerster Resonance energy transfer (FRET)[48]. FRET efficiency was quantified with E%=Ipost/Ipost+Ipre⋅100 , where Ipost is the intensity of the […] and Ipre is the […]. […] To extract the contribution of both processes, we adjusted a routine recently published by Gerganova et al.[33]. In short, the code provides the contribution of both modes of recovery by analysing the shape of the fluorescence recovery profile. […] Contribution of diffusion leads to a change of the slope of the outer borders of the bleached region (S4h right). Thus, by measuring the change of the slope of the border recovery, diffusion and simple on/off binding can be distinguished. We developed “FRAPdiff”, a graphical user interface, which uses the original fit routine by David Rutkowski. It can be used directly on.tiff movies with annotated bleach regions as ImageJ ROIs. In addition, we added optional bleach correction, user selectable projection axis (x or y), and optional mirroring of the recovery profiles, if bleaching was not symmetric. The original fit routine for estimating the recovery and diffusion dynamics can be found at https://github.com/davidmrutkowski/1DReflectingDiffusion. FRAPdiff is available at 10.5281/zenodo.6400639[49] under the GPLv3 open-source license.

FtsA WT: wild-type E. coli actin-homologue FtsA, membrane anchor of FtsZ
Pearson correlation coefficient (PCC) FtsA/FtsZ (FtsZ; 0.1 µM FtsA, steady state about 15 min): 0.78 ± 0.04
PCC FtsZ/FtsA (FtsZ; 0.1µM FtsA, Exp. 2): 0.79
PCC FtsZ/FtsA (FtsZ; 0.1µM FtsA, replicate 1 (row printed 'goo')): 0.77
Pearson correlation coefficient (PCC) FtsA/FtsZ (FtsZ; 0.2 µM FtsA, steady state about 15 min): 0.69 ± 0.06
PCC FtsZ/FtsA (FtsZ; 0.2µM FtsA, Exp. 2): 0.62
PCC FtsZ/FtsA (FtsZ; 0.2µM FtsA, replicate 1 (row printed 'goo')): 0.61
Pearson correlation coefficient (PCC) FtsA/FtsZ (FtsZ; 0.4 µM FtsA, WT vs R286W p-value 1.28 × 10^−5): 0.32 ± 0.12
PCC FtsZ/FtsA (FtsZ; 0.4µM FtsA, Exp. 2): 0.40
PCC FtsZ/FtsA (FtsZ; 0.4µM FtsA, replicate 1 (row printed 'goo')): 0.43
Pearson correlation coefficient (PCC) FtsA/FtsZ (FtsZ; 0.8 µM FtsA): 0.27 ± 0.09
PCC FtsZ/FtsA (FtsZ; 0.8µM FtsA, Exp. 2): 0.29
PCC FtsZ/FtsA (FtsZ; 0.8µM FtsA, replicate 1 (row printed 'goo')): 0.38

B1: FtsA R286W-His6: FtsA R286W (1-405) with amphipathic helix replaced by C-terminal His-tag (protein)
chain: MIKATDRKLVVGLEIGTAKVAALVGEVLPDGMVNIIGVGSCPSRGMDKGGVNDLESVVKCVQRAIDQAELMADCQISSVYLALSGKHISCQNEIGMVPISEEEVTQEDVENVVHTAKSVRVRDEHRVLHVIPQEYAIDYQEGIKNPVGLSGVRMQAKVHLITCHNDMAKNIVKAVERCGLKVDQLIFAGLASSYSVLTEDERELGVCVVDIGGGTMDIAVYTGGALRHTKVIPYAGNVVTSDIAYAFGTPPSDAEAIKVRHGCALGSIVGKDESVEVPSVGGRPPWSLQRQTLAEVIEPRYTELLNLVNEEILQLQEKLRQQGVKHHLAAGIVLTGGAAQIEGLAACAQRVFHTQVRIGAPLNITGLTDYAQEPYYSTAVGLLHYGKESHLNGEAEVEKRVTASV
modifications: Cy3 or Cy5 at the N-terminus in the labelled form (sortagging as for native FtsA); left off: TwinStrep-SUMO, N-terminal, cleaved | 5xGlycine tag, N-terminal, kept | His6, C-terminal, kept
FRET efficiency (FtsA self-interaction; 0.1% Tris NTA, + FtsZ; Exp1): 0.51%
FRET efficiency (FtsA self-interaction; 0.1% Tris NTA, + FtsZ; Exp2): 0.32%
FRET efficiency (FtsA self-interaction; 0.1% Tris NTA, + FtsZ; mean, n = 2): 0.42%
FRET efficiency (FtsA self-interaction; 0.1% Tris NTA, without FtsZ; Exp1): 0.42%
FRET efficiency (FtsA self-interaction; 0.1% Tris NTA, without FtsZ; Exp2): 0.20%
FRET efficiency (FtsA self-interaction; 0.1% Tris NTA, without FtsZ; mean, n = 2): 0.31%
FRET efficiency (FtsA self-interaction; 0.4% Tris NTA; + FtsZ; Exp1): 4.18%
FRET efficiency (FtsA self-interaction; 0.4% Tris NTA; + FtsZ; Exp2): 2.69%
FRET efficiency (FtsA self-interaction; 0.4% Tris NTA; + FtsZ; Mean, n = 2): 3.43%
FRET efficiency (FtsA self-interaction; 0.4% Tris NTA; without FtsZ; Exp1): 3.62%
FRET efficiency (FtsA self-interaction; 0.4% Tris NTA; without FtsZ; Exp2): 3.61%
FRET efficiency (FtsA self-interaction; 0.4% Tris NTA; without FtsZ; Mean, n = 2): 3.62%
FRET efficiency (FtsA self-interaction; 0.6% Tris NTA; + FtsZ; Exp1): 3.82%
FRET efficiency (FtsA self-interaction; 0.6% Tris NTA; + FtsZ; Exp2): 8.42%
FRET efficiency (FtsA self-interaction; 0.6% Tris NTA; + FtsZ; Exp3): 3.49%
FRET efficiency (FtsA self-interaction; 0.6% Tris NTA; + FtsZ; Mean, n = 3): 5.24%
FRET efficiency (FtsA self-interaction; 0.6% Tris NTA; without FtsZ; Exp1): 2.27%
FRET efficiency (FtsA self-interaction; 0.6% Tris NTA; without FtsZ; Exp2): 7.55%
FRET efficiency (FtsA self-interaction; 0.6% Tris NTA; without FtsZ; Exp3): 3.60%
FRET efficiency (FtsA self-interaction; 0.6% Tris NTA; without FtsZ; Mean, n = 3 (His6-SUMO n = 2)): 4.47%
FRET efficiency (FtsA self-interaction; 0.8% Tris NTA; + FtsZ; Exp1): 12.66%
FRET efficiency (FtsA self-interaction; 0.8% Tris NTA; + FtsZ; Exp2): 13.96%
FRET efficiency (FtsA self-interaction; 0.8% Tris NTA; + FtsZ; Exp3): 6.95%
FRET efficiency (FtsA self-interaction; 0.8% Tris NTA; + FtsZ; Mean, n = 3): 11.19%
FRET efficiency (FtsA self-interaction; 0.8% Tris NTA; without FtsZ; Exp1): 11.90%
FRET efficiency (FtsA self-interaction; 0.8% Tris NTA; without FtsZ; Exp2): 13.18%
FRET efficiency (FtsA self-interaction; 0.8% Tris NTA; without FtsZ; Exp3): 7.63%
FRET efficiency (FtsA self-interaction; 0.8% Tris NTA; without FtsZ; Mean, n = 3 (His6-SUMO n = 2)): 10.90%
FRET efficiency (FtsA self-interaction; 1% Tris NTA; + FtsZ; Exp1): 18.63%
FRET efficiency (FtsA self-interaction; 1% Tris NTA; + FtsZ; Exp2): 11.68%
FRET efficiency (FtsA self-interaction; 1% Tris NTA; + FtsZ; Exp3): 16.69%
FRET efficiency (FtsA self-interaction; 1% Tris NTA; + FtsZ; Exp4): 5.28%
FRET efficiency (FtsA self-interaction; 1% Tris NTA; + FtsZ; Mean, n = 3 (R286W-His6 n = 4)): 13.07%
FRET efficiency (FtsA self-interaction; 1% Tris NTA; without FtsZ; Exp1): 13.30%
FRET efficiency (FtsA self-interaction; 1% Tris NTA; without FtsZ; Exp2): 11.28%
FRET efficiency (FtsA self-interaction; 1% Tris NTA; without FtsZ; Exp3): 16.33%
FRET efficiency (FtsA self-interaction; 1% Tris NTA; without FtsZ; Exp4): 5.94%
FRET efficiency (FtsA self-interaction; 1% Tris NTA; without FtsZ; Mean, n = 3 (R286W-His6 n = 4)): 11.71%
FRET efficiency (FtsA self-interaction; 2% Tris NTA; + FtsZ; Exp1): 13.95%
FRET efficiency (FtsA self-interaction; 2% Tris NTA; + FtsZ; Exp2): 11.07%
FRET efficiency (FtsA self-interaction; 2% Tris NTA; + FtsZ; Mean, n = 2): 12.51%
FRET efficiency (FtsA self-interaction; 2% Tris NTA; without FtsZ; Exp1): 11.54%
FRET efficiency (FtsA self-interaction; 2% Tris NTA; without FtsZ; Exp2): 10.61%
FRET efficiency (FtsA self-interaction; 2% Tris NTA; without FtsZ; Mean, n = 2): 11.08%
FRET efficiency (FtsA self-interaction; Tris 0.40 %, + FtsZ; mean): 3.43%
FRET efficiency (FtsA self-interaction; Tris 0.40 %, without FtsZ; mean): 3.61%
FRET efficiency (FtsA self-interaction; Tris 0.60 %, + FtsZ; mean): 5.24%
FRET efficiency (FtsA self-interaction; Tris 0.60 %, without FtsZ; mean): 4.47%
FRET efficiency (FtsA self-interaction; Tris 0.80 %, + FtsZ; mean): 11.19%
FRET efficiency (FtsA self-interaction; Tris 0.80 %, without FtsZ; mean): 10.90%
FRET efficiency (FtsA self-interaction; Tris 1.00 %, + FtsZ; mean): 13.07%
FRET efficiency (FtsA self-interaction; Tris 1.00 %, without FtsZ; mean): 11.71%
FRET efficiency (FtsA self-interaction; Tris 2.00 %, + FtsZ; mean): 12.51%
FRET efficiency (FtsA self-interaction; Tris 2.00 %, without FtsZ; mean): 11.08%
FRET efficiency (FtsA self-interaction; […] Tris NTA, + FtsZ; Exp1): 3.67%
FRET efficiency (FtsA self-interaction; […] Tris NTA, + FtsZ; Exp2): 2.76%
FRET efficiency (FtsA self-interaction; […] Tris NTA, + FtsZ; mean, n = 2): 3.22%
FRET efficiency (FtsA self-interaction; […] Tris NTA, without FtsZ; Exp1): 3.93%
FRET efficiency (FtsA self-interaction; […] Tris NTA, without FtsZ; Exp2): 1.52%
FRET efficiency (FtsA self-interaction; […] Tris NTA, without FtsZ; mean, n = 2): 2.73%
FRET efficiency (FtsA self-interaction; […] Tris NTA; + FtsZ; Exp1): 8.55%
FRET efficiency (FtsA self-interaction; […] Tris NTA; + FtsZ; Exp2): 12.05%
FRET efficiency (FtsA self-interaction; […] Tris NTA; + FtsZ; Exp3): 9.96%
FRET efficiency (FtsA self-interaction; […] Tris NTA; + FtsZ; Mean, n = 3): 10.19%
FRET efficiency (FtsA self-interaction; […] Tris NTA; without FtsZ; Exp1): 9.50%
FRET efficiency (FtsA self-interaction; […] Tris NTA; without FtsZ; Exp2): 13.25%
FRET efficiency (FtsA self-interaction; […] Tris NTA; without FtsZ; Exp3): 7.80%
FRET efficiency (FtsA self-interaction; […] Tris NTA; without FtsZ; Mean, n = 3): 10.18%
FRET increase with FtsNcyto-His (FtsA self-interaction; […] Tris-NTA): more than twofold
FRET efficiency (FtsA self-interaction; […] Tris-NTA; + N (FtsNcyto); mean): 18.47%
FRET efficiency (FtsA self-interaction; […] Tris-NTA; + N/Z (FtsNcyto and FtsZ); mean): 17.73%
FRET efficiency (FtsA self-interaction; […] Tris-NTA; + N/Z; Exp. 1): 21.67%
FRET efficiency (FtsA self-interaction; […] Tris-NTA; + N/Z; Exp. 2): 17.33%
FRET efficiency (FtsA self-interaction; […] Tris-NTA; + N/Z; Exp. 3): 14.20%
FRET efficiency (FtsA self-interaction; […] Tris-NTA; + N; Exp. 1): 22.02%
FRET efficiency (FtsA self-interaction; […] Tris-NTA; + N; Exp. 2): 17.07%
FRET efficiency (FtsA self-interaction; […] Tris-NTA; + N; Exp. 3): 16.35%
FRET efficiency (FtsA self-interaction; […] Tris-NTA; + Z (FtsZ); mean): 8.99%
FRET efficiency (FtsA self-interaction; […] Tris-NTA; + Z; Exp. 1): 5.42%
FRET efficiency (FtsA self-interaction; […] Tris-NTA; + Z; Exp. 2): 8.55%
FRET efficiency (FtsA self-interaction; […] Tris-NTA; + Z; Exp. 3): 12.05%
FRET efficiency (FtsA self-interaction; […] Tris-NTA; + Z; Exp. 4): 9.96%
FRET efficiency (FtsA self-interaction; […] Tris-NTA; alone; Exp. 1): 4.90%
FRET efficiency (FtsA self-interaction; […] Tris-NTA; alone; Exp. 2): 9.50%
FRET efficiency (FtsA self-interaction; […] Tris-NTA; alone; Exp. 3): 13.25%
FRET efficiency (FtsA self-interaction; […] Tris-NTA; alone; Exp. 4): 7.80%
FRET efficiency (FtsA self-interaction; […] Tris-NTA; alone; mean): 8.86%
FRET efficiency (FtsA self-interaction; with FtsNcyto attached to the membrane; mean ± s.d.; p-value 0.03): 17.73 ± 3.06%
